Laboratory results from patent US12329823B2 (The Scripps Research Institute, priority 2021, dated 2025).
Several values for one entry are separate records, joined by “and”; a condition that tells them apart may be missing. Equal values may be shown once. Read-outs that look alike come from different tables or passages of the source.

Legend:
[1] = target: T1, mouse GLP1R (Mus musculus, UniProt O35659); assay: In vitro potency, mouse GLP1R activation (receptor-mediated cAMP synthesis); type: cell-based; conditions: Table 12
T1 sequence (O35659 22-463): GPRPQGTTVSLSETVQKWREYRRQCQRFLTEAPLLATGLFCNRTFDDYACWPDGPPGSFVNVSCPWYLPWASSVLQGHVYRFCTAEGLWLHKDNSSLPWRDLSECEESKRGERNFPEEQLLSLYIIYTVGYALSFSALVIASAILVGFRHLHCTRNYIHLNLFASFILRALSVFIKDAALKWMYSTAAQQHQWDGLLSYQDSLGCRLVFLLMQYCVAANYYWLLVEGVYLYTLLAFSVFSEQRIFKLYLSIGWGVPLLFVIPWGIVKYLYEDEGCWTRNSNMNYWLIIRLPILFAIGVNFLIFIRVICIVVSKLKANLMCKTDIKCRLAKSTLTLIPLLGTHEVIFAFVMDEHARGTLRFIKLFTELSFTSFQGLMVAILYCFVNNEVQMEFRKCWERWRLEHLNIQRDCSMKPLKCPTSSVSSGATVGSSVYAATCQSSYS
Description: (§1) GLP-1R-CRE or HEK293-GIPR-CRE cells were seeded in 384-well plates at a density of 5000 cells per well and cultured for 18 h in DMEM with 10% FBS at 37° C. and 5% CO2. Cells were treated with peptides in a dose dependent manner for 24 h, and receptor activation was reported by luminescence intensities, using One-Glo (Promega, WI) luciferase reagent following manufacturer's instruction. The EC50 of each peptide was determined using GraphPad Prism 6 software (GraphPad, San Diego, CA). Results are depicted in FIGS. 6A-6B, FIGS. 7A-7B, FIGS. 8A-8B, FIGS. 9A-9B, and Tables 7-12. Measurements of peptide conjugate potency were expressed as half maximal effective concentration (EC50) values.

[2] = target: cynomolgous monkey GLP1R (Macaca fascicularis, UniProt F8V479); assay: In vitro potency, cynomolgous monkey GLP1R activation (receptor-mediated cAMP synthesis); type: cell-based; conditions: Table 12; read-out: In Vitro Potency GLP1R EC50, Cyno
Sequence of cynomolgous monkey GLP1R (F8V479 24-463): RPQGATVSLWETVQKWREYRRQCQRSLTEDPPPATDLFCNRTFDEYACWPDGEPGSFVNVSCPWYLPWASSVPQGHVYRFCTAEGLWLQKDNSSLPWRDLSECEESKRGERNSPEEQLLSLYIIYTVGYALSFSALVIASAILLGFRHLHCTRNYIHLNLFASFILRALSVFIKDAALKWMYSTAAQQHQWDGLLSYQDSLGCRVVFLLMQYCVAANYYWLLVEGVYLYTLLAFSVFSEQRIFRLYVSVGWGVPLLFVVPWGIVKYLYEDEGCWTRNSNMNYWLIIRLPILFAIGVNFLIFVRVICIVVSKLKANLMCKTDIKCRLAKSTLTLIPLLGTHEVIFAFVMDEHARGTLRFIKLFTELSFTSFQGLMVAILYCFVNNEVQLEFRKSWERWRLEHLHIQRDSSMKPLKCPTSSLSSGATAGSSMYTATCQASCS
Description: as §1

[3] = in vivo; conditions: dog
[4] = target: T2, dog GIPR (Canis lupus familiaris, UniProt A0A8I3MPG1); assay: In vitro potency, dog GIPR activation (receptor-mediated cAMP synthesis); type: cell-based; conditions: Table 12; read-out: In Vitro Potency GIPR EC50, Dog
T2 sequence (A0A8I3MPG1 24-449): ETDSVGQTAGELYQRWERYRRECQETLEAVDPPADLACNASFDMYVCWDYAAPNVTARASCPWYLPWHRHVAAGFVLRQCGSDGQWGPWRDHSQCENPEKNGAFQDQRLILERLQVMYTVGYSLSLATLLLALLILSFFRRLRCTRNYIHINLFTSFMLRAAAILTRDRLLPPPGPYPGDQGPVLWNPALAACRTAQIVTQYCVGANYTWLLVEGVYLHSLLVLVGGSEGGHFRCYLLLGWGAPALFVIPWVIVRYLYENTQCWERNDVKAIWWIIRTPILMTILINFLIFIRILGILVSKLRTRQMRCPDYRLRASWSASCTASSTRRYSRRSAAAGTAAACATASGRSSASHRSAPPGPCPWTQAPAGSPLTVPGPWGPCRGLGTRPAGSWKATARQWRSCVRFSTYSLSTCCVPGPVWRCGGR
Description: as §1

[5] = target: T3, dog GLP1R (Canis lupus familiaris, UniProt A0A8I3NUR9); assay: In vitro potency, dog GLP1R activation (receptor-mediated cAMP synthesis); type: cell-based; conditions: Table 12
T3 sequence (A0A8I3NUR9 1-464): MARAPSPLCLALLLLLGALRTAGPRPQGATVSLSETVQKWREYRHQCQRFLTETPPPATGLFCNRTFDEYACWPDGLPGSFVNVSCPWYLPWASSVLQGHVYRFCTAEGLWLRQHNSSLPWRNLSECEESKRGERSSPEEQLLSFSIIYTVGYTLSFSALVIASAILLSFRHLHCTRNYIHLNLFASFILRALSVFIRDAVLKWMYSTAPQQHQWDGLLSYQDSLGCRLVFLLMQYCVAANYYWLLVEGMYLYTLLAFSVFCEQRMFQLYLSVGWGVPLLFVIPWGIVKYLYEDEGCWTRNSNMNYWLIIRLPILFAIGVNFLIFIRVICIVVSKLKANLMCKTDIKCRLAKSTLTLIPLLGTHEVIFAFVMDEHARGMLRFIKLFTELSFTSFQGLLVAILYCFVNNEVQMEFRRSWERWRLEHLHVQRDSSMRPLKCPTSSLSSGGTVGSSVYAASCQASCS
Description: as §1

[6] = Pharmacokinetics in CD-1 mouse, I.V. or S.C. 1 mg/kg, plasma concentration by LC-MS; conditions: individual animals; for AUC(0-inf): AUCINF_pred; for MRT inf / MRT last: mouse, in vivo; for MRT inf: MRTINF_pred; for MRT last: MRTlast;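 as to all read-outs here: peptide levels in plasma quantified by LC-MS across multiple sampling times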
Description: The peptide plasma concentration at various time points was determined using LC-MS.

[7] = target: human GLP-1R (Homo sapiens, UniProt P43220); assay: In vitro receptor activation reporter assay (CRE-Luc, HEK293-GLP-1R-CRE cells; receptor-mediated cAMP synthesis); type: cell-based; set-up: expressed in transfected cells; host or cells: HEK293 (CRE-HEK293, HEK293-GLP-1R-CRE); conditions: Table 11, human
Sequence of human GLP-1R (P43220 24-463): as the sequence (F8V479 24-463) above, with N112S, S120F, G202S, V205L, F237L, R241W, V249I counted along it
Description: HEK293 cells were infected with lentivirus encoding firefly luciferase gene under the control of cAMP responsive element (CRE) promoter (Qiagen, The Netherlands) and then were selected using 1 μg mL^−1 puromycin (Life Technologies, Carlsbad) for 1 week. The surviving cells (referred to as CRE-HEK293) were expanded and then transfected with a G418 selective mammalian expression plasmid encoding human GLP-1R or GIPR. In brief, GLP-1R or GIPR plasmid was transfected into CRE-HEK293 cells using Lipofectamine 2000 and selected with 400 μg mL^−1 Geneticin (Life Technologies, Carlsbad, CA). Single colony stable cell line overexpressing CRE-luciferase and GLP-1R or GIPR (HEK293-GLP-1R-CRE or HEK293-GIPR-CRE) was then established for in vitro activity assay.
HEK293 cells were infected with lentivirus encoding firefly luciferase gene under the control of cAMP responsive element (CRE) promoter (Qiagen, The Netherlands) and then were selected using 1 μg/mL puromycin (Life Technologies, Carlsbad) for 1 week. The surviving cells (referred to as CRE-HEK293) were expanded and then transfected with a G418 selective mammalian expression plasmid encoding human GLP-1R. In brief, GLP-1R plasmid was transfected into CRE-HEK293 cells using Lipofectamine 2000 and selected with 400 μg/mL Geneticin (Life Technologies, Carlsbad, CA). Single colony stable cell line overexpressing CRE-luciferase and GLP1R was then established for in vitro activity assay.

[8] = CD-1, mouse, plasma, iv, 1 mg/kg, Table 15, I.V. 1 mg/kg
[9] = CD-1, mouse, plasma, sc, 1 mg/kg, S.C.
[10] = Table 15, I.V. 1 mg/kg, 1 mg/kg
[11] = iv, 1 mg/kg, Table 15, I.V. 1 mg/kg

SMILES: CC[C@H](C)[C@H](NC(=O)[C@H](CC(C)C)NC(=O)[C@H](Cc1c[nH]c2ccccc12)NC(=O)[C@@H]1CSCC(=O)NCCN(C(=O)CCC(=O)NCCOCCOCCC(=O)NCCOCCOCCC(=O)NCCCC[C@H](NC(=O)CCCCCCCCCCCCCCCCC(=O)O)C(=O)O)CCNC(=O)CSC[C@H](NC(=O)[C@H](CCCCN)NC(=O)[C@H](CC(=O)O)NC(=O)[C@H](CC(C)C)NC(=O)[C@H](Cc2ccc(O)cc2)NC(=O)[C@@H](NC(=O)[C@H](CO)NC(=O)[C@H](Cc2ccc(O)cc2)NC(=O)[C@H](CC(=O)O)NC(=O)[C@H](CO)NC(=O)[C@@H](NC(=O)[C@H](Cc2ccccc2)NC(=O)[C@@H](NC(=O)CNC(=O)[C@H](CCC(=O)O)NC(=O)C(C)(C)NC(=O)[C@@H](N)Cc2ccc(O)cc2)[C@@H](C)O)[C@@H](C)O)[C@@H](C)CC)C(=O)N[C@@H](C)C(=O)N[C@@H](C)C(=O)NC(C)(C)C(=O)N[C@@H](CCC(=O)O)C(=O)N[C@@H](Cc2ccccc2)C(=O)N[C@@H](C(C)C)C(=O)N1)C(=O)N[C@@H](C)C(=O)NCC(=O)NCC(=O)N1CCC[C@H]1C(=O)N[C@@H](CO)C(=O)N[C@@H](CO)C(=O)NCC(=O)N[C@@H](C)C(=O)N1CCC[C@H]1C(=O)N1CCC[C@H]1C(=O)N1CCC[C@H]1C(=O)N[C@@H](CO)C(N)=O [mCMZ371, YAibEGT-FTSDY-SIYLD-KXAAAib-EFVXW-LIAGG-PSSGA-PPPS-NH2 (where each X is C) (SEQ ID NO: 61)]
- EC50 [1]: 0.09 nM
- EC50 [2]: 0.11 nM
- t1/2 in dogs (in words) [3]: long t1/2
- AUC(0-t) ([3]; iv): 25.6 µg·h/mL
- T last ([3]; iv): 240 h
- Vd ([3]; iv): 0.11 L/kg
- clearance ([3]; iv): 0.0198 mL/min/kg
- half-life ([3]; iv): 71.9 h
- AUC(0-t) ([3]; sc): 17.6 µg·h/mL
- Cmax ([3]; sc): 150 ng/mL
- T last ([3]; sc): 240 h
- Tmax ([3]; sc): 24 h
- half-life ([3]; sc): 62.7 h
- bioavailability ([3]; sc, Bioavailability): 68.7%
- EC50 [4]: 0.47 nM
- EC50 [5]: 1.34 nM
- AUC ([6]; CD-1, mouse, plasma, iv, 1 mg/kg, AUC0_24, Table 15, I.V. 1 mg/kg): 242 µg·h/mL
- AUC(0-t) ([6]; CD-1, mouse, plasma, iv, 1 mg/kg, AUC last, Table 15, I.V. 1 mg/kg): 341 µg·h/mL
- AUC(0-inf) [6, 8]: 344 µg·h/mL
- C0 ([6]; CD-1, mouse, plasma, iv, 1 mg/kg, C0, Table 15, I.V. 1 mg/kg): 15500 ng/mL
- Cmax ([6]; CD-1, mouse, plasma, iv, 1 mg/kg, Cmax, Table 15, I.V. 1 mg/kg): 15100 ng/mL
- Tmax [6, 8]: 0.08 h
- Vd ([6]; CD-1, mouse, plasma, iv, 1 mg/kg, Vss_pred, Table 15, I.V. 1 mg/kg): 0.051 L/kg
- Vd ([6]; CD-1, mouse, plasma, iv, 1 mg/kg, Vz_pred, Table 15, I.V. 1 mg/kg): 0.038 L/kg
- half-life ([6]; CD-1, mouse, plasma, iv, 1 mg/kg, t1/2, Table 15, I.V. 1 mg/kg): 9.13 h
- AUC ([6]; CD-1, mouse, plasma, sc, 1 mg/kg, AUC0_24, CD-1 mouse, S.C.): 127 µg·h/mL
- AUC(0-inf) [6, 9]: 274 µg·h/mL
- AUC ([6]; CD-1, mouse, plasma, sc, 1 mg/kg, AUCall, S.C.): 267 µg·h/mL
- CL/F ([6]; CD-1, mouse, plasma, sc, 1 mg/kg, Cl_Fpred, S.C.): 0.12 mL/min/kg
- Tmax [6, 9]: 24 h
- half-life ([6]; CD-1, mouse, plasma, sc, 1 mg/kg, t1/2, CD-1 mouse, S.C.): 10.7 h
- AUC0_24 ([6]; CD-1 mouse, S.C., 1 mg/kg): 67.917 µg·h/mL and 95.28 µg·h/mL
- AUCINF_pred ([6]; CD-1 mouse, S.C., 1 mg/kg): 143.707 µg·h/mL and 202.468 µg·h/mL
- AUC_% Extrap_pred ([6]; CD-1 mouse, S.C., 1 mg/kg): 2.34% and 3.37% and 2.55%
- AUCall ([6]; CD-1 mouse, S.C., 1 mg/kg): 138.868 µg·h/mL and 197.314 µg·h/mL
- AUMC_% Extrap_pred ([6]; CD-1 mouse, S.C., 1 mg/kg): 7.05% and 10.52% and 7.78%
- Cl_Fpred ([6]; CD-1 mouse, S.C., 1 mg/kg): 0.24 mL/min/kg
- Cmax ([6]; CD-1 mouse, S.C., 1 mg/kg): 9259 ng/mL and 3389 ng/mL and 6337 ng/mL
- MRTINF_pred ([6]; CD-1 mouse, S.C., 1 mg/kg): 28.76 h and 28.77 h
- MRTlast ([6]; CD-1 mouse, S.C., 1 mg/kg): 26.63 h and 27.22 h
- Tlast ([6]; CD-1 mouse, S.C., 1 mg/kg): 72 h
- V_F_pred ([6]; CD-1 mouse, S.C., 1 mg/kg): 0.06 L/kg and 0.12 L/kg and 0.08 L/kg
- t1/2 ([6]; CD-1 mouse, S.C., 1 mg/kg): 12.36 h and 11.01 h
- Tlast ([6]; Table 15, I.V. 1 mg/kg): 72 h
- AUC0_24 [6, 10]: 255.418 µg·h/mL and 285.442 µg·h/mL
- AUC last [6, 10]: 355.565 µg·h/mL and 403.09 µg·h/mL
- AUCINF_pred [6, 10]: 359.258 µg·h/mL and 407.964 µg·h/mL
- AUC_% Extrap_pred [6, 10]: 0.75% and 1.03% and 1.19%
- AUMC_% Extrap_pred [6, 10]: 3.41% and 4.82% and 5.56%
- C0 [6, 10]: 21060 ng/mL and 24603 ng/mL
- Cmax [6, 10]: 20910 ng/mL and 24203 ng/mL
- MRTINF_pred [6, 10]: 18.43 h and 18.65 h
- MRTlast [6, 10]: 17.72 h and 17.83 h
- Vss_pred [6, 10]: 0.054 L/kg and 0.046 L/kg
- Vz_pred [6, 10]: 0.04 L/kg and 0.036 L/kg
- t1/2 [6, 10]: 10 h and 10.31 h
- MRT inf [6, 11]: 18.7 h
- MRT last [6, 11]: 18.2 h
- MRT inf ([6]; sc, 1 mg/kg, CD-1 mouse, S.C.): 29 h
- MRT last ([6]; sc, 1 mg/kg, CD-1 mouse, S.C.): 27.6 h
- EC50 ([7]; In Vitro Potency GLPIR EC50, 10% FBS, 10% FBS): 0.56 ± 0.15 nM
- EC50 ([7]; No Serum, read-out: In Vitro Potency GLPIR EC50, No Serum): 0.14 ± 0.06 nM
